Paper PMC9138216

Target: Bacillus pumilus bilirubin oxidase (Bacillus pumilus)
Experiment: crystal structure; X-ray, 3.5 Å; crystals grown at 20 °C in 0.1 M sodium citrate pH 5.5, 20% PEG 3000; dimer interface analysed with PDBePISA

stoichiometry N: 2
Substance: Bacillus pumilus bilirubin oxidase (enzyme)
